US20080194482A1, “Selective Apac2 Receptor Peptide Agonists” (priority 2005, published 2008)
Numbered stars: 1 amine (or outer) side, 2 acyl side, 3 side chain; on linkers, the order of the positions; unused ones are H or OH. Square brackets hold non-standard residues; d marks the D form. Ends that are not written are not given here. * marks the point of attachment. Tyr(OMe) = O-methyl-tyrosine, COc1ccc(C[C@H](N[*:1])C(=O)[*:2])cc1; Orn = NCCC[C@H](N)C(=O)O; Hexanoyl = CCCCCC(=O)*; Aib = CC(C)(N)C(=O)O

T1: rat VPAC2 receptor (rat, UniProt P35000 23-437)
T1 sequence (looked up): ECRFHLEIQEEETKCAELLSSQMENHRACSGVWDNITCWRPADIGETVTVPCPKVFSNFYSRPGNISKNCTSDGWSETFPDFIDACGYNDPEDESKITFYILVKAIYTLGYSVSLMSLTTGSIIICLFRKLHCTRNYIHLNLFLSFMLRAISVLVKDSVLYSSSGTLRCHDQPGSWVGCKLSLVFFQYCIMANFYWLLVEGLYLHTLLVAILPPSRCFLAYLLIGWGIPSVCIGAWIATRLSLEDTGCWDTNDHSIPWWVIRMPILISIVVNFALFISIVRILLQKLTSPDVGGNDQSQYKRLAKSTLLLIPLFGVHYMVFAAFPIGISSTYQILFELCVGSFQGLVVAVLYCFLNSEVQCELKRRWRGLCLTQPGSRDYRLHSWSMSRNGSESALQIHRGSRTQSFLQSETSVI

T2: human VPAC2 receptor (human, UniProt P41587 24-438)
T2 sequence (looked up): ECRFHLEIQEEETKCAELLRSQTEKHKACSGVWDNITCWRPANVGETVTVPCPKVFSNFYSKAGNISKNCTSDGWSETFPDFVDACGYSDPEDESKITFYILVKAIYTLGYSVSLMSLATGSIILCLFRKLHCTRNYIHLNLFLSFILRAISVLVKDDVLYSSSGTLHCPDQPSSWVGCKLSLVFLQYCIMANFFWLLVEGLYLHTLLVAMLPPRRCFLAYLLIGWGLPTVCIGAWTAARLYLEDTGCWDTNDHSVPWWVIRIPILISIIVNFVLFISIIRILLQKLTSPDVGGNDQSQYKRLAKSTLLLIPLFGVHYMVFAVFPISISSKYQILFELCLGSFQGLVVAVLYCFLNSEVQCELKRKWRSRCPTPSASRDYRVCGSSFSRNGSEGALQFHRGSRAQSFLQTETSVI

T3: rat VPAC1 receptor (rat, UniProt P30083 31-459)
T3 sequence (looked up): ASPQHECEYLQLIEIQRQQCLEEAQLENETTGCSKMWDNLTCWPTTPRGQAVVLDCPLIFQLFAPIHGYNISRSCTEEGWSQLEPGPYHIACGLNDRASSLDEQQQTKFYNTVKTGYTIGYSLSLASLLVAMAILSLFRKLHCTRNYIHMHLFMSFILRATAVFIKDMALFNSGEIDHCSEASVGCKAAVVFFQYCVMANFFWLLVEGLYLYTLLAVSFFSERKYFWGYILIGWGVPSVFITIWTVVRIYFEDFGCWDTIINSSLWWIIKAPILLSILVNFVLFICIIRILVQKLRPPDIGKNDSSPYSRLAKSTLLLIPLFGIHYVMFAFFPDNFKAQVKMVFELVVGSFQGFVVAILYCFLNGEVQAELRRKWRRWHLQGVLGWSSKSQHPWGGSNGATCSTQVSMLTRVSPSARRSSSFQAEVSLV


Key:
[1] = target: T1, rat VPAC2 receptor; assay: cell-based or functional assay
[2] = target: T2, human VPAC2 receptor; assay: cell-based or functional assay
[3] = target: T2, human VPAC2 receptor; assay: filter binding, human VPAC2 membranes, competition with 125I-VIP;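 note: assay plate incubated 1 h with shaking, then filtered, with filter-retained counts measured after adding scintillant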
Protocol: The filled plate is incubated for 1 hour with shaking.
The transfer from assay plate to filter plate is conducted. The blocking buffer is aspirated by vacuum filtration and washed two times with flush buffer. 90 μL is transferred from the assay plate to the filter plate. The 90 μL transferred from assay plate is aspirated and washed three times with 200 μL flush buffer. The plastic support is removed. It is dried for 1 hour at 60° C. 30 μL Microscint is added. The count is performed.

[4] = target: T3, rat VPAC1 receptor; assay: cell-based or functional assay

Binder | Rat VPAC2 Receptor: DiscoveRx (EC50; nM), cAMP generation [1] [nM] | Human VPAC2 Receptor: Alpha Screen (EC50; nM), cAMP generation [2] [nM] | IC50 [3] [nM] | Rat VPAC1 Receptor: DiscoveRx (EC50; nM), cAMP generation [4] [nM]
Hexanoyl-HSDAVFTDQYTR[Aib]R[Aib]QVAA[Aib]KYLQSIK[Aib]KGGPSSGAPPPS [VPAC2 receptor peptide agonist P406] | 0.04 | 0.12 | 0.27 | 
Hexanoyl-HSDAVFTDQ[Tyr(OMe)]TR[Aib]R[Aib]QLAA[Aib]KYLQSIK[Aib]KGGPSSGAPPPS [VPAC2 receptor peptide agonist P408] | 0.04 | 0.12 | 0.48 | 0.35
Hexanoyl-HSDAVFTDNYT[Orn]LLAKLALQKYLQSI[Orn]N[Orn]GGPSSGAPPPS [VPAC2 receptor peptide agonist P371] |  | 0.13 | 0.34 | 
HSDAVFTDNYTXLRXQVAAXKYLQSIKNKRYGGPSSGAPPPS (N-terminal hexanoyl (C6); hR (homoarginine) at 12; Aib at 15 and 20) [VPAC2 receptor peptide agonist P343] | 0.15 | 0.29 | 0.85 | 2.62
HSDAVFTEQYTXLRXQLAAXXYLQSIXXGGPSSGAPPPS (N-terminal hexanoyl (C6); Tyr(OMe) at 10 and 22; Orn at 12, 21, 27 and 28; Aib at 15 and 20) [VPAC2 receptor peptide agonist P418] | 0.57 | 3.11 | 8.96 | 7.76
HSDAVFTDNYTXLRXQVAAXXYLQSIXXGGPSSGAPPPS (N-terminal hexanoyl (C6); Orn at 12, 21, 27 and 28; Aib at 15 and 20) [VPAC2 receptor peptide agonist P397] |  | 0.15 | 0.5 | 
HSEAVFTEQYTXLRXQLAAXXYLQSIXXGGPSSGAPPPS (N-terminal hexanoyl (C6); Tyr(OMe) at 10; Orn at 12, 21, 27 and 28; Aib at 15 and 20) [VPAC2 receptor peptide agonist P393] | 0.17 | 0.31 | 0.74 | 16
HSDAVFTDNYTRLRXQVAAXKYLQSIKXXGGPSSGAPPPS (N-terminal hexanoyl (C6); Aib at 15, 20 and 28; Orn at 29) [VPAC2 receptor peptide agonist P357] | 0.07 | 0.23 | 0.32 | 0.69
Hexanoyl-HSDAVFTDSYT[Orn]LR[Aib]QVAA[Aib]KYLQSI[Orn]N[Orn]GGPSSGAPPPS [VPAC2 receptor peptide agonist P392] | 0.08 | 0.21 | 0.45 | 0.71
HSDAVFTDNYTXLRXQVAAXKYLQSSXNXGGPSSGAPPPS (N-terminal hexanoyl (C6); Orn at 12, 27 and 29; Aib at 15 and 20) [VPAC2 receptor peptide agonist P382] | 0.37 | 0.33 | 2.17 | 8.21
Hexanoyl-HSEAVFTENYT[Orn]LR[Aib]QVAA[Aib]KYLQSI[Orn]N[Orn]GGPSSGAPPPS [VPAC2 receptor peptide agonist P362] | 1.22 | 0.58 | 1.91 | 35.9
Hexanoyl-HSDAVFTDQYT[Orn]LR[Aib]QVAA[Aib]KYLQSI[Orn]Q[Orn]GGPSSGAPPPS [VPAC2 receptor peptide agonist P363] | 0.09 | 0.27 | 0.25 | 1.44
